Each block holds one binder with its values, some of them ahead of it.
What was measured:
EB1 = target: T1, EB1 (UniProt Q15691 2-268); assay: anti-FLAG co-immunoprecipitation, immunoblot
T1 construct: Endogenous protein detected by immunoblot or mass spectrometry; also called endogenous EB1
T1 sequence (looked up): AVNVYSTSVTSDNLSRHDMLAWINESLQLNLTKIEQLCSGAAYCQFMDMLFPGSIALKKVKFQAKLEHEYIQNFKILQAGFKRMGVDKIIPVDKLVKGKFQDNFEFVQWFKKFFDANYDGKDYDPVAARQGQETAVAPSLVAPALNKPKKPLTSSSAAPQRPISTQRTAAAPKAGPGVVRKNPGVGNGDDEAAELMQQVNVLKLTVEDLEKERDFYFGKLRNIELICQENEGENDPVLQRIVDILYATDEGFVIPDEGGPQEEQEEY
Experimental: (§1) After anti-FLAG immunoprecipitation, the immunoprecipitates and inputs were probed on immunoblots. […] Scale bars, 5 μm.
(§2) Anti-FLAG immunoprecipitation was performed using anti-FLAG-coupled beads (M2, Sigma) in cell extracts prepared with a lysis buffer (20 mM Tris-HCl, pH7.4, 150 mM NaCl, 1 mM EDTA, 1% Triton X-100, 1 mM dithiothreitol, and the Protease Inhibitor Cocktail). Immunoprecipitated proteins were detected by immunoblotting.

GFP-EB3 = target: T2, GFP-EB3 (UniProt Q9UPY8 1-281); assay: anti-FLAG co-immunoprecipitation from HEK293T, anti-GFP immunoblot
T2 construct: not shown: GFP tag
T2 sequence (Q9UPY8 whole entry): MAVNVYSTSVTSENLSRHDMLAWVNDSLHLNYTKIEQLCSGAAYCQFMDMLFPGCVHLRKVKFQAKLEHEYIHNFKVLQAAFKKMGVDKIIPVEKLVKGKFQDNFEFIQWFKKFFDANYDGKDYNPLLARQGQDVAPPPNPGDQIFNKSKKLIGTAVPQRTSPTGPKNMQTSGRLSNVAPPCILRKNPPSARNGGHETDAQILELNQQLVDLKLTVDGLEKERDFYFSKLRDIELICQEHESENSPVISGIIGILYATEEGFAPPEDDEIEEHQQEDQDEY
Experimental: as §1, §2

AKAP450 = target: T3, AKAP450 (UniProt Q99996 1-3907, limits assumed); assay: anti-FLAG co-immunoprecipitation from HEK293T, immunoblot
T3 construct: Endogenous protein detected by immunoblot; also called AKAP350; CG-NAP
T3 sequence (Q99996 whole entry): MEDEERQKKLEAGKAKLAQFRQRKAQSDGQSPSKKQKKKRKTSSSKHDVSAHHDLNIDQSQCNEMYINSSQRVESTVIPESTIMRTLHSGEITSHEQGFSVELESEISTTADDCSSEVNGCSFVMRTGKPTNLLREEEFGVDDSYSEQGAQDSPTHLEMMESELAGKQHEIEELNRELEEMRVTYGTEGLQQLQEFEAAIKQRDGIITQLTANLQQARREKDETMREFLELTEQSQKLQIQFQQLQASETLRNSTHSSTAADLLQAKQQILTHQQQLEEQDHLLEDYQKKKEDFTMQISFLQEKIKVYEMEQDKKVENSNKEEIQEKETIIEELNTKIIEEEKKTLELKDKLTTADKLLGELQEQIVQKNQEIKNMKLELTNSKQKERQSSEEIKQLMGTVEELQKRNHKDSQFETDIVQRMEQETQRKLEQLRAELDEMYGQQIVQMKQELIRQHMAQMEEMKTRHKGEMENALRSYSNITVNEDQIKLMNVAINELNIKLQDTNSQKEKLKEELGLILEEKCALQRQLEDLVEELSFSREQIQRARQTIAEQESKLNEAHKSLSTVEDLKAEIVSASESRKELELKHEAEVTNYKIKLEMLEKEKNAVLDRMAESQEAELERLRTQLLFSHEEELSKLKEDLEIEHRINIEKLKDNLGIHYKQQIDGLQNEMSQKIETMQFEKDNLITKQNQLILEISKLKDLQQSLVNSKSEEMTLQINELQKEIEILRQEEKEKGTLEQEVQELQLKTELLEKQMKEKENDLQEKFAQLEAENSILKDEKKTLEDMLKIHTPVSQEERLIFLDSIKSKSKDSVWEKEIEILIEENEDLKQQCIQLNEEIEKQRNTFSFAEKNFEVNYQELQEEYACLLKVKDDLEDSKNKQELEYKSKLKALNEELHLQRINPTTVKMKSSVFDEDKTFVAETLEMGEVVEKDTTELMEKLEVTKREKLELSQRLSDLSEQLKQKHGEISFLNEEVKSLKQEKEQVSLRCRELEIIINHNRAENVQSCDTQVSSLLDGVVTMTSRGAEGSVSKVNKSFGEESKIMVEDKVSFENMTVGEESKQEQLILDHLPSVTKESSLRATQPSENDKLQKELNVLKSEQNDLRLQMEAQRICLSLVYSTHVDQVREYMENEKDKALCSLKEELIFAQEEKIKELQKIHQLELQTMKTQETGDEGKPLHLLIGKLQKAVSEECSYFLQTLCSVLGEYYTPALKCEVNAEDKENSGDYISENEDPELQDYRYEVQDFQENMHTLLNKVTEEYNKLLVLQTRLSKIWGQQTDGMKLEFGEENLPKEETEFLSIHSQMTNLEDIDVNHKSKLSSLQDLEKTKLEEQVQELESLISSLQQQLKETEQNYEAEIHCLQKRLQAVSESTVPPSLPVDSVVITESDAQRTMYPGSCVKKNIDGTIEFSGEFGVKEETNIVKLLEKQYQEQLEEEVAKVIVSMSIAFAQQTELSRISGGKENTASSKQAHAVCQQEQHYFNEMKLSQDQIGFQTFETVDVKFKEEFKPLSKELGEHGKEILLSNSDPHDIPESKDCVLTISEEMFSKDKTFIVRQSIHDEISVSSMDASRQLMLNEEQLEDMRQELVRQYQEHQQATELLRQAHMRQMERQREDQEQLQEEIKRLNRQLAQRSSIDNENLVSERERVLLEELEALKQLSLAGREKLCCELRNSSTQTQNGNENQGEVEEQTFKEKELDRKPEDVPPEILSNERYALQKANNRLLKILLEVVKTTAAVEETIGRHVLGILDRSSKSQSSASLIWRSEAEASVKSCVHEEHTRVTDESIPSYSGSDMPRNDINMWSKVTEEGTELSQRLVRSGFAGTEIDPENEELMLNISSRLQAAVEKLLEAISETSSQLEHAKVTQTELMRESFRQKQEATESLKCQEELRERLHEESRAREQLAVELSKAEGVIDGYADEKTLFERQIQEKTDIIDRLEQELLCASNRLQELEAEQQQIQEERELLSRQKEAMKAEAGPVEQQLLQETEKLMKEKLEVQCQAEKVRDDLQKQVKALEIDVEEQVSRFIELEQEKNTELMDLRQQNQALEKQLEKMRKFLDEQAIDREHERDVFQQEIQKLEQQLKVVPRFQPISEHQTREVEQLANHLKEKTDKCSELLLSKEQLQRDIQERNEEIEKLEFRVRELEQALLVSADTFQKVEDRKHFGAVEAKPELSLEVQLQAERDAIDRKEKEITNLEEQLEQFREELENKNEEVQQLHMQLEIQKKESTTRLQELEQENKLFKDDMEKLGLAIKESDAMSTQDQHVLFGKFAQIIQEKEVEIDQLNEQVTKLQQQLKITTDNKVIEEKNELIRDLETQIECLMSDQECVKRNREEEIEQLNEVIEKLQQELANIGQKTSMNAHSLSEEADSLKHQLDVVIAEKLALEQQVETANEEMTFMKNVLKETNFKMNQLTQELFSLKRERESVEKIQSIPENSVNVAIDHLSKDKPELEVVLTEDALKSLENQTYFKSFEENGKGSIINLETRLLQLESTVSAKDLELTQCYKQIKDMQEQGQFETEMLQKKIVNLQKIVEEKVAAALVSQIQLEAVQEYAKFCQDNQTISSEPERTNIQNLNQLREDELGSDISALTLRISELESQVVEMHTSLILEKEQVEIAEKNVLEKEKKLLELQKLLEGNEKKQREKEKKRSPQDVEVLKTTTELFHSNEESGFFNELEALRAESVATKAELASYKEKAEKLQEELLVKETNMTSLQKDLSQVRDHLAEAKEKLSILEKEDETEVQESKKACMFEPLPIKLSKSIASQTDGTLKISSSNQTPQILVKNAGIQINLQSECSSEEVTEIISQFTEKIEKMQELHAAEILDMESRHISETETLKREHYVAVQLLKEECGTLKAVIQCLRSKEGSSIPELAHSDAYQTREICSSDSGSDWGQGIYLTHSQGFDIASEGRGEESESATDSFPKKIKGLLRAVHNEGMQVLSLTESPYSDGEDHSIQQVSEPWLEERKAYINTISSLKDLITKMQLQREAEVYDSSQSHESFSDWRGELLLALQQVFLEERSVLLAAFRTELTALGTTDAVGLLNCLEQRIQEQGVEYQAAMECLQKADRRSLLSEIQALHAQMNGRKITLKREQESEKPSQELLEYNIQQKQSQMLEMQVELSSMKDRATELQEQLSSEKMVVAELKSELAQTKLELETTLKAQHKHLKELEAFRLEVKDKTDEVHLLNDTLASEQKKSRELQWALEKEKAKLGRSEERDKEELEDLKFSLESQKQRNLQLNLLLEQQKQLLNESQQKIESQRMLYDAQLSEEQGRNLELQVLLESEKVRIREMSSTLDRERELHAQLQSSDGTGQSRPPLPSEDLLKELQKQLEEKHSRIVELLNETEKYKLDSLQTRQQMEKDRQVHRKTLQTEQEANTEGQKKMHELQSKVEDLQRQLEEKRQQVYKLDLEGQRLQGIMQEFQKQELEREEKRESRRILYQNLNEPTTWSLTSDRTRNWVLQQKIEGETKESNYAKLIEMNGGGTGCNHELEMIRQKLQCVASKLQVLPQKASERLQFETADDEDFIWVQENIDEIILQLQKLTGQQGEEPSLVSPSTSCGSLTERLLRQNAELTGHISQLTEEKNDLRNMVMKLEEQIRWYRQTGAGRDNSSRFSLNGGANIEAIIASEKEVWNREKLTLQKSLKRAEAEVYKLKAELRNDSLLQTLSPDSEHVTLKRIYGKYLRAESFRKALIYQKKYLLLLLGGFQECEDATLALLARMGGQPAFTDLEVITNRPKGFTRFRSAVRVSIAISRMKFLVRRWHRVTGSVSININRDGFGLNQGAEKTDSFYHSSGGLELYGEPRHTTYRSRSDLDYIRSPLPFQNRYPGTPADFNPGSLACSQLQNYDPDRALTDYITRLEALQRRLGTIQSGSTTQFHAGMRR
Experimental: The immunoprecipitated proteins and inputs were analyzed by immunoblotting and quantified. […] Data shown are means±S.D. from three independent experiments. […] The arrow indicates a transfected cell. Boxed areas are enlarged. Scale bars, 5 μm.
as §2

binding result (EB1): no binding
B1: FLAG-tagged MMG8 fragment 1-389 (L311A/P312A) (other)
chain: MKEICRICARELCGNQRRWIFHTASKLNLQVLLSHVLGKDVPRDGKAEFACSKCAFMLDRIYRFDTVIARIEALSIERLQKLLLEKDRLKFCIASMYRKNNDDSGAEIKAGNGTVDMSVLPDARYSALLQEDFAYSGFECWVENEDQIQEPHSCHGSEGPGNRPRRCRGCAALRVADSDYEAICKVPRKVARSISCGPSSRWSTSICTEEPALSEVGPPDLASTKVPPDGESMEEETPGSSVESLDASVQASPPQQKDEETERSAKELGKCDCCSDDQAPQHGCNHKLELALSMIKGLDYKPIQSPRGSRAAIPVKSSLPGAKPGPSMTDGVSSGFLNRSLKPLYKTPVSYPLELSDLQELWDDLCEDYLPLRVQPMTEELLKQQKLNS
notes: not shown: FLAG tag

binding result (GFP-EB3): no binding
binding result (EB1): no binding
B2: FLAG-tagged full-length MMG8(L311A/P312A) (other)
chain: MKEICRICARELCGNQRRWIFHTASKLNLQVLLSHVLGKDVPRDGKAEFACSKCAFMLDRIYRFDTVIARIEALSIERLQKLLLEKDRLKFCIASMYRKNNDDSGAEIKAGNGTVDMSVLPDARYSALLQEDFAYSGFECWVENEDQIQEPHSCHGSEGPGNRPRRCRGCAALRVADSDYEAICKVPRKVARSISCGPSSRWSTSICTEEPALSEVGPPDLASTKVPPDGESMEEETPGSSVESLDASVQASPPQQKDEETERSAKELGKCDCCSDDQAPQHGCNHKLELALSMIKGLDYKPIQSPRGSRAAIPVKSSLPGAKPGPSMTDGVSSGFLNRSLKPLYKTPVSYPLELSDLQELWDDLCEDYLPLRVQPMTEELLKQQKLNSHETTITQQSVSDSHLAELQEKIQQTEATNKILQEKLNEMSYELKCAQESSQKQDGTIQNLKETLKSRERETEELYQVIEGQNDTMAKLREMLHQSQLGQLHSSEGTSPAQQQVALLDLQSALFCSQLEIQKLQRVVRQKERQLADAKQCVQFVEAAAHESEQQKEASWKHNQELRKALQQLQEELQNKSQQLRAWEAEKYNEIRTQEQNIQHLNHSLSHKEQLLQEFRELLQYRDNSDKTLEANEMLLEKLRQRIHDKAVALERAIDEKFSALEEKEKELRQLRLAVRERDHDLERLRDVLSSNEATMQSMESLLRAKGLEVEQLSTTCQNLQWLKEEMETKFSRWQKEQESIIQQLQTSLHDRNKEVEDLSATLLCKLGPGQSEIAEELCQRLQRKERMLQDLLSDRNKQVLEHEMEIQGLLQSVSTREQESQAAAEKLVQALMERNSELQALRQYLGGRDSLMSQAPISNQQAEVTPTGRLGKQTDQGSMQIPSRDDSTSLTAKEDVSIPRSTLGDLDTVAGLEKELSNAKEELELMAKKERESQMELSALQSMMAVQEEELQVQAADMESLTRNIQIKEDLIKDLQMQLVDPEDIPAMERLTQEVLLLREKVASVESQGQEISGNRRQQLLLMLEGLVDERSRLNEALQAERQLYSSLVKFHAHPESSERDRTLQVELEGAQVLRSRLEEVLGRSLERLNRLETLAAIGGGELESVRIHHKHAY
notes: also called L311A/P312A mutant; not shown: FLAG tag

binding result (AKAP450): no binding
B3: FLAG-tagged MMG8 fragment 390-1116 (other)
chain: HETTITQQSVSDSHLAELQEKIQQTEATNKILQEKLNEMSYELKCAQESSQKQDGTIQNLKETLKSRERETEELYQVIEGQNDTMAKLREMLHQSQLGQLHSSEGTSPAQQQVALLDLQSALFCSQLEIQKLQRVVRQKERQLADAKQCVQFVEAAAHESEQQKEASWKHNQELRKALQQLQEELQNKSQQLRAWEAEKYNEIRTQEQNIQHLNHSLSHKEQLLQEFRELLQYRDNSDKTLEANEMLLEKLRQRIHDKAVALERAIDEKFSALEEKEKELRQLRLAVRERDHDLERLRDVLSSNEATMQSMESLLRAKGLEVEQLSTTCQNLQWLKEEMETKFSRWQKEQESIIQQLQTSLHDRNKEVEDLSATLLCKLGPGQSEIAEELCQRLQRKERMLQDLLSDRNKQVLEHEMEIQGLLQSVSTREQESQAAAEKLVQALMERNSELQALRQYLGGRDSLMSQAPISNQQAEVTPTGRLGKQTDQGSMQIPSRDDSTSLTAKEDVSIPRSTLGDLDTVAGLEKELSNAKEELELMAKKERESQMELSALQSMMAVQEEELQVQAADMESLTRNIQIKEDLIKDLQMQLVDPEDIPAMERLTQEVLLLREKVASVESQGQEISGNRRQQLLLMLEGLVDERSRLNEALQAERQLYSSLVKFHAHPESSERDRTLQVELEGAQVLRSRLEEVLGRSLERLNRLETLAAIGGGELESVRIHHKHAY
notes: not shown: FLAG tag

— patent publication US20130230532A1 (HONG KONG UNIVERSITY OF SCIENCE AND TECHNOLOGY, published 2013)
